These results are taken from patent US20230357348A1 (AstraZeneca / MedImmune, published 2023).

Starred links: 1 amine or outer side, 2 acyl side, 3 side chain; linkers in the order of their positions; H or OH if unused. Non-standard residues stand in square brackets, D forms with d. Groups on a side chain read outwards from the residue. No end group written: not given here. *: point of attachment. C20 diacid = O=C(O)CCCCCCCCCCCCCCCCCCC(=O)*; C18 diacid = O=C(O)CCCCCCCCCCCCCCCCC(=O)*; γGlu = O=C(O)[C@H](CCC(=O)[*:2])N[*:1]; αMeF = C[C@](N)(Cc1ccccc1)C(=O)O; AEEA = NCCOCCOCC(=O)O; Aib = CC(C)(N)C(=O)O

One assay concerns the target human GLP-1 receptor (human, UniProt P43220 24-463). Put plainly: cell-based or functional assay.
For a further assay, the target named is human glucagon receptor (human, UniProt P47871 26-477). Briefly: cell-based or functional assay.
Sequence of human glucagon receptor (P47871 26-477): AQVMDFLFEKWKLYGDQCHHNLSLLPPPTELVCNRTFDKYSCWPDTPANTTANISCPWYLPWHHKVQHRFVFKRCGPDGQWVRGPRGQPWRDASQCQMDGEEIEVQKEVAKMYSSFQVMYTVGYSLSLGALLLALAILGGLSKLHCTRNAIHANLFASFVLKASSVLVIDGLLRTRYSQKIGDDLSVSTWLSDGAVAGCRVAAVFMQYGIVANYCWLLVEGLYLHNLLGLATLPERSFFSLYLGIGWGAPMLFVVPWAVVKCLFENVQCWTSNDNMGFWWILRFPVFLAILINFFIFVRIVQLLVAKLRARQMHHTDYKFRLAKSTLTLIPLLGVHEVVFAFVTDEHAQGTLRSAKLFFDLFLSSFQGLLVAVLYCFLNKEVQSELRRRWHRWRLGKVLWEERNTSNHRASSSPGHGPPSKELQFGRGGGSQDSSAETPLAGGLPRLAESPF

In the case of H[Aib]QGTFTSDVSK[αMeF]LDSRAAK([AEEA-AEEA-γGlu-C18 diacid])DFVQ[Aib]LVAT-NH2 (not fully specified) [Peptide 315], the “hGLP-1R EC50 (pM), cAMP” value with human GLP-1 receptor was found to be 18.1 pM. Further, the “hGluc-R EC50 (pM), cAMP” value with human glucagon receptor turned out to be 5850 pM.

B1: Peptide 298 (peptide)
peptide: H[Aib]HGS[αMeF]TSDVSR[αMeF]LDSRAAK([AEEA-AEEA-γGlu-γGlu-C20 diacid])D[αMeF]VQ[Aib]IANT-NH2
modifications: N-terminus assumed
SMILES: CC[C@H](C)[C@H](NC(=O)C(C)(C)NC(=O)[C@H](CCC(N)=O)NC(=O)[C@@H](NC(=O)[C@](C)(Cc1ccccc1)NC(=O)[C@H](CC(=O)O)NC(=O)[C@H](CCCCNC(=O)COCCOCCNC(=O)COCCOCCNC(=O)CC[C@H](NC(=O)CC[C@H](NC(=O)CCCCCCCCCCCCCCCCCCC(=O)O)C(=O)O)C(=O)O)NC(=O)[C@H](C)NC(=O)[C@H](C)NC(=O)[C@H](CCCNC(=N)N)NC(=O)[C@H](CO)NC(=O)[C@H](CC(=O)O)NC(=O)[C@H](CC(C)C)NC(=O)[C@](C)(Cc1ccccc1)NC(=O)[C@H](CCCNC(=N)N)NC(=O)[C@H](CO)NC(=O)[C@@H](NC(=O)[C@H](CC(=O)O)NC(=O)[C@H](CO)NC(=O)[C@@H](NC(=O)[C@](C)(Cc1ccccc1)NC(=O)[C@H](CO)NC(=O)CNC(=O)[C@H](Cc1c[nH]cn1)NC(=O)C(C)(C)NC(=O)[C@@H](N)Cc1c[nH]cn1)[C@@H](C)O)C(C)C)C(C)C)C(=O)N[C@@H](C)C(=O)N[C@@H](CC(N)=O)C(=O)N[C@H](C(N)=O)[C@@H](C)O
In the case of B1, the “hGLP-1R EC50 (pM), cAMP” value with human GLP-1 receptor turned out to be 75.5 pM. Further, in the assay with human glucagon receptor, the “hGluc-R EC50 (pM), cAMP” value came to 573 pM.
The corresponding values for H[Aib]HGS[αMeF]TSDVSK[αMeF]LDSRAAK([AEEA-AEEA-γGlu-γGlu-C20 diacid])D[αMeF]VQ[Aib]IANT-NH2 (not fully specified) [Peptide 305] are 211 pM and 155 pM.
Turning to H[Aib]HGS[αMeF]TSDVSK[αMeF]LDSRAAK([AEEA-AEEA-γGlu-γGlu-C20 diacid])D[αMeF]IA[Aib]IAET-NH2 [Peptide 302], the “hGLP-1R EC50 (pM), cAMP” value with human GLP-1 receptor is 151 pM. Also, in the assay with human glucagon receptor, the “hGluc-R EC50 (pM), cAMP” value stood at 271 pM.

B2: Peptide 300 (peptide)
peptide: H[Aib]HGS[αMeF]TSDVSK[αMeF]LDSRAAK([AEEA-AEEA-γGlu-C18 diacid])D[αMeF]VQ[Aib]IAET-NH2
modifications: N-terminus assumed
SMILES: CC[C@H](C)[C@H](NC(=O)C(C)(C)NC(=O)[C@H](CCC(N)=O)NC(=O)[C@@H](NC(=O)[C@](C)(Cc1ccccc1)NC(=O)[C@H](CC(=O)O)NC(=O)[C@H](CCCCNC(=O)COCCOCCNC(=O)COCCOCCNC(=O)CC[C@H](NC(=O)CCCCCCCCCCCCCCCCC(=O)O)C(=O)O)NC(=O)[C@H](C)NC(=O)[C@H](C)NC(=O)[C@H](CCCNC(=N)N)NC(=O)[C@H](CO)NC(=O)[C@H](CC(=O)O)NC(=O)[C@H](CC(C)C)NC(=O)[C@](C)(Cc1ccccc1)NC(=O)[C@H](CCCCN)NC(=O)[C@H](CO)NC(=O)[C@@H](NC(=O)[C@H](CC(=O)O)NC(=O)[C@H](CO)NC(=O)[C@@H](NC(=O)[C@](C)(Cc1ccccc1)NC(=O)[C@H](CO)NC(=O)CNC(=O)[C@H](Cc1c[nH]cn1)NC(=O)C(C)(C)NC(=O)[C@@H](N)Cc1c[nH]cn1)[C@@H](C)O)C(C)C)C(C)C)C(=O)N[C@@H](C)C(=O)N[C@@H](CCC(=O)O)C(=O)N[C@H](C(N)=O)[C@@H](C)O
In the case of B2, in the assay with human GLP-1 receptor, the “hGLP-1R EC50 (pM), cAMP” value is 19.7 pM. In addition, the “hGluc-R EC50 (pM), cAMP” value with human glucagon receptor was determined as 18.4 pM.
Regarding H[Aib]HGS[αMeF]TSDVSK[αMeF]LDSRAAK([AEEA-AEEA-γGlu-γGlu-C20 diacid])D[αMeF]VQ[Aib]IANT-OH [Peptide 304], the “hGLP-1R EC50 (pM), cAMP” value in the assay with human GLP-1 receptor amounted to 239 pM. The “hGluc-R EC50 (pM), cAMP” value with human glucagon receptor was 687 pM.
